What was measured:
[1] = target: LecRLK-2RPAN (Salix purpurea); experiment: size exclusion chromatography, self-association
[2] = target: SpG-type LecRLK-2PAN (Salix purpurea); experiment: size exclusion chromatography, self-association

percent monomeric [1] [%] | percent in higher-order complex (likely a trimer or tetramer) [2] [%] | percent monomeric [2] [%] | Substance
26.4 | – | – | LecRLK-2RPAN (receptor)
– | 48.2 | 51.8 | SpG-type LecRLK-2PAN (receptor)
